From patent US6127332

T1: interferon receptors on Daudi cells and A549 cells (Homo sapiens (Human)) (UniProt P17181)
T1 sequence 1: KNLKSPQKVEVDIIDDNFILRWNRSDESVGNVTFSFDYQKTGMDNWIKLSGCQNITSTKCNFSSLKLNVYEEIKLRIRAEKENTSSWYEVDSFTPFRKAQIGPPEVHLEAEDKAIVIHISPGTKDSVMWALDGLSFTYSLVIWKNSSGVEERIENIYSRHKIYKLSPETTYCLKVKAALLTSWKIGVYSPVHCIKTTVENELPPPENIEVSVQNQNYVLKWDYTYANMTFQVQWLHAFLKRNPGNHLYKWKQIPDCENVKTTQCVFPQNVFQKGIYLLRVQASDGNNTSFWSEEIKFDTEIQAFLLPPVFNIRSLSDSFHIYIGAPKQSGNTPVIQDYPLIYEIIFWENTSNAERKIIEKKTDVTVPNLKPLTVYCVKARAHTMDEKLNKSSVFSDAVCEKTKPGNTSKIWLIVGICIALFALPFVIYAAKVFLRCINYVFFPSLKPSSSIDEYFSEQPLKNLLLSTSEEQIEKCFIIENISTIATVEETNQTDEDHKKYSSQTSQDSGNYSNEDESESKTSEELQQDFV
T1 sequence 2: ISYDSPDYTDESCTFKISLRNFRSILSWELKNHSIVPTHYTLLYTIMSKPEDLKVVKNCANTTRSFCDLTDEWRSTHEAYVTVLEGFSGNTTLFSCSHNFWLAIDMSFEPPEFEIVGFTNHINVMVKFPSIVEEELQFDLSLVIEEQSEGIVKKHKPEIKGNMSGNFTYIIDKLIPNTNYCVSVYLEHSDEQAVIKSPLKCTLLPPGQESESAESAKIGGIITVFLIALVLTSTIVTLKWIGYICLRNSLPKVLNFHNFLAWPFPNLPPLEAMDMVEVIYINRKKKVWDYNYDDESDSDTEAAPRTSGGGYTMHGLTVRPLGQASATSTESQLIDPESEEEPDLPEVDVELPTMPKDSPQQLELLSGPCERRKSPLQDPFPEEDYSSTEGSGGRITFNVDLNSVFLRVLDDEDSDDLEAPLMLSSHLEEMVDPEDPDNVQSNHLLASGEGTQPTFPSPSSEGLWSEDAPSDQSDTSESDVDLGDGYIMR

B1: IFN-β(phe101) (ligand)
chain: MSYNLLGFLQRSSNFQCQKLLWQLNGRLEYCLKDRMNFDIPEEIKQLQQFQKEDAALTIYEMLQNIFAIFRQDSSSTGWNETIVENLLANVYHQINHLKTFLEEKLEKEDFTRGKLMSSLHLKRYYGRILHYLKAKEYSHCAWTIVRVEILRNFYFINRLTGYLRN
modifications: 125I label (chloramine T method) where used as the labelled ligand in the receptor binding assay; unlabelled as competitor and in the antiviral assays

How the values were obtained:
[1] = biological target: T1, interferon receptors on Daudi cells and A549 cells (Homo sapiens (Human))
[2] = biological target: T1, interferon receptors on Daudi cells and A549 cells (Homo sapiens (Human)); remark: listed apart in the source

Molecule | specific activity in the Cytopathic Effect (CPE) assay for antiviral activity (EMC virus) [1] | specific activity in the antiviral assay relative to recombinant wild type IFN-β [2] [fold]
wild type recombinant IFN-β (ligand) | 2e+08 units/mg | 
B1 | 4.8e+08 U/mg | 2.5
